Test results taken from patent US20030036108A1.

Key:
[1] = molecular target: CD4 naturally expressed on Jurkat T cells (human) (UniProt P01730); assay: cell-based or functional assay
[2] = molecular target: CXCR4 naturally expressed on Jurkat T cells (human) (UniProt P61073); assay: cell-based or functional assay
CXCR4 naturally expressed on Jurkat T cells (human), sequence (P61073 whole entry): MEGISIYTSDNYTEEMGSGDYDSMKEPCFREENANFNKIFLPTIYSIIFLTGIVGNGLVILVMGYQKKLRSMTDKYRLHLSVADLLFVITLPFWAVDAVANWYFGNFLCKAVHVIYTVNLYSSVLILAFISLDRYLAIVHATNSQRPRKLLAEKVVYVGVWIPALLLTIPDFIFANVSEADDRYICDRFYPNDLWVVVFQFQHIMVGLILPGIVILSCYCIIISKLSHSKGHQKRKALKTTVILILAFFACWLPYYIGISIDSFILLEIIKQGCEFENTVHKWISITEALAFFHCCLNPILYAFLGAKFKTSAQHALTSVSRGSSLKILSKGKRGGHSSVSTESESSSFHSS

“gp143/HXB2, a carboxyl-terminus truncated form of the Env (gp160) of HIV-1 strain HXB2, expressed on CHO or 293T cells (from UniProt P04578 31-714)” showed a fusion ratio (460 nm / 530 nm emission) of 293T cells expressing gp143/HXB2 with Jurkat cells [1] of 1.54 and a fusion ratio (460 nm / 530 nm emission) of 293T cells expressing gp143/HXB2 with Jurkat cells [2] of 1.54.
